Values of other authors in PMC6614495.

Target: Amyloid beta (Homo sapiens) (UniProt P05067)
Sequence (P05067 672-711): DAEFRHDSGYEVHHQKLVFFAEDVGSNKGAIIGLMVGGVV

Sequence of Clusterin (ApoJ) (P10909 23-227): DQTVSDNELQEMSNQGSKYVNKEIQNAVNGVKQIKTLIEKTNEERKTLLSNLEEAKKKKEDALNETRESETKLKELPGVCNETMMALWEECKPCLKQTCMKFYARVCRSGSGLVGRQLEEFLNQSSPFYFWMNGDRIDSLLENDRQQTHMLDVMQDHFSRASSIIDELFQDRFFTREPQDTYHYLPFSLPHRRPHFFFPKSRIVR
Sequence of Clusterin (ApoJ) (P10909 228-449): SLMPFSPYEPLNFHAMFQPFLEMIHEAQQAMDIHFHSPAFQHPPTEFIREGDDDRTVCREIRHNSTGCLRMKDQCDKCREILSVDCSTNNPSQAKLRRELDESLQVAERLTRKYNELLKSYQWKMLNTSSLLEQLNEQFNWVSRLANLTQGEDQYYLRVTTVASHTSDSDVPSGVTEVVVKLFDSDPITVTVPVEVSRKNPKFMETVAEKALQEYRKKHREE

- Kd: 2 nM
Substance: Clusterin (ApoJ) (from UniProt P10909)
